# Residue numbers refer to the chain shown, from its start.
# How the values were obtained:
# Experiment in all cases: holdup assay
# Parameters in all cases: key: below the threshold = too weak to quantify, mostly under pKd 3.1 to 4
# SNTG1, Q9NSN8 = target: T1, SNTG1, Q9NSN8
# T1 sequence (Q9NSN8 52-150, limits assumed, looked up): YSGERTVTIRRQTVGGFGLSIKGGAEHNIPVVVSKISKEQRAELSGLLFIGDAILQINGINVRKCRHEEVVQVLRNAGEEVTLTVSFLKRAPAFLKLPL
# DLG4_1, P78352 = target: DLG4_1, P78352
# MPP7, Q5T2T1 = target: T2, MPP7, Q5T2T1
# T2 sequence (Q5T2T1 134-230, limits assumed, looked up): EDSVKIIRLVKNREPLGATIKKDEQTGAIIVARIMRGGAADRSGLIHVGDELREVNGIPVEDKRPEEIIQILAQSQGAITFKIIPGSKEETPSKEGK
# NOS1, P29475 = target: NOS1, P29475
# NHERF3_3, Q5T2W1 = target: T3, NHERF3_3, Q5T2W1
# T3 sequence (Q5T2W1 238-333, limits assumed, looked up): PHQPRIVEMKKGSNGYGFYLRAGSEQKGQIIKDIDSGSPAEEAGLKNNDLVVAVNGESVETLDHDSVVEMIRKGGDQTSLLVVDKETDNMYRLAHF
# PDZRN4_1, Q6ZMN7 = target: PDZRN4_1, Q6ZMN7
# PTPN13_1, Q12923 = target: T4, PTPN13_1, Q12923
# T4 sequence (Q12923 1088-1188, limits assumed, looked up): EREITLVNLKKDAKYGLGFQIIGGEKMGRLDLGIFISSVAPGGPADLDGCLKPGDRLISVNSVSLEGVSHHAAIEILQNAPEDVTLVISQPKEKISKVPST
# MAGI1_1, Q96QZ7 = target: MAGI1_1, Q96QZ7
# SNTA1, Q13424 = target: T5, SNTA1, Q13424
# T5 sequence (Q13424 82-180, limits assumed, looked up): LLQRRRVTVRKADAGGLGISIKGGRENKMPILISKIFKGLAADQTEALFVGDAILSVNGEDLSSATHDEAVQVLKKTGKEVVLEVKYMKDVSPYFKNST
# Inadl_2, Q8NI35 = target: Inadl_2, Q8NI35
# IL16_4, Q14005 = target: IL16_4, Q14005
# APBA1_2, Q02410 = target: T6, APBA1_2, Q02410
# T6 sequence (Q02410 742-832, limits assumed, looked up): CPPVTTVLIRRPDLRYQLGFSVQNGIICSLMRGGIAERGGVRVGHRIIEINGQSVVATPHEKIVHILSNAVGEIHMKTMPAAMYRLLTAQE
# DLG4_2, P78352 = target: DLG4_2, P78352
# PICK1, Q9NRD5 = target: PICK1, Q9NRD5
# SNX27, Q96L92 = target: SNX27, Q96L92
# LIN7A, O14910 = target: T7, LIN7A, O14910
# T7 sequence (O14910 103-200, limits assumed, looked up): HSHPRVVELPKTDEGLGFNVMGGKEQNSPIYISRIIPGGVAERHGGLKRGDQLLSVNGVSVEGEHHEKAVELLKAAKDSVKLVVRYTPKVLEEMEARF
# APBA2_2, Q99767 = target: T8, APBA2_2, Q99767
# T8 sequence (Q99767 654-744, limits assumed, looked up): T6 sequence (Q02410 742-832, limits assumed, looked up) with R10K, R15K, P59A, H65Q, I66A, A70S, Y84F, A89G
# ARHGEF11, O15085 = target: T9, ARHGEF11, O15085
# T9 sequence (O15085 42-136, limits assumed, looked up): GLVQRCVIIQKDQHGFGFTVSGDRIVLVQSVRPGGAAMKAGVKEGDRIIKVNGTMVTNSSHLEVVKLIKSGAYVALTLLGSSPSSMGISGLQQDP
# SYNJ2BP, P57105 = target: T10, SYNJ2BP, P57105
# T10 sequence (P57105 8-110, limits assumed, looked up): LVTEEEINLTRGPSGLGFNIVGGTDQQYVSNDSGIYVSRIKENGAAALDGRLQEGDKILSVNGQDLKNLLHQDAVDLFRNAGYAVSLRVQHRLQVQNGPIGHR
# LNX2_2, Q8N448 = target: T11, LNX2_2, Q8N448
# T11 sequence (Q8N448 334-432, limits assumed, looked up): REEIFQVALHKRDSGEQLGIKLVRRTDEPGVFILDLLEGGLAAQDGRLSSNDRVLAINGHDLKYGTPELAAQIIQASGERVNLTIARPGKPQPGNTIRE
# Inadl_8, Q8NI35 = target: Inadl_8, Q8NI35
# PARD3_3, Q8TEW0 = target: PARD3_3, Q8TEW0
# GRIP2_4, Q9C0E4 = target: GRIP2_4, Q9C0E4
# GIPC2, Q8TF65 = target: GIPC2, Q8TF65
# Inadl_4, Q8NI35 = target: Inadl_4, Q8NI35
# GRIP1_2, Q9Y3R0 = target: T12, GRIP1_2, Q9Y3R0
# T12 sequence (Q9Y3R0 145-248, limits assumed, looked up): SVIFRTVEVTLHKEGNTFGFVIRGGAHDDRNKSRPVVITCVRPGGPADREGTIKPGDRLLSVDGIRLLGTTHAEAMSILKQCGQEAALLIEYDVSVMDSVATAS
# [1] = plain residues with an end cap or a label only (N-terminal biotin on a linker: none)
# [2] = plain residues with an end cap or a label only (N-terminal biotin on a linker: gsgsgs; C-terminal amide)
# [3] = plain residues with an end cap or a label only (N-terminal biotin on a linker: ahx)
# Sequence of IL16_4, Q14005 (Q14005 1229-1329): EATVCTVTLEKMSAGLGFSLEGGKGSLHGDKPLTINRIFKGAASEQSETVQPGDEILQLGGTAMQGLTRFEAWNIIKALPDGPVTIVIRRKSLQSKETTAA
# Sequence of PARD3_3, Q8TEW0 (Q8TEW0 582-685): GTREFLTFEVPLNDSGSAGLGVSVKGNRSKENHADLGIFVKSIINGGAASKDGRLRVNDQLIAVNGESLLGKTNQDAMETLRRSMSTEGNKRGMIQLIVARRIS
# Sequence of DLG4_1, P78352 (P78352 62-152): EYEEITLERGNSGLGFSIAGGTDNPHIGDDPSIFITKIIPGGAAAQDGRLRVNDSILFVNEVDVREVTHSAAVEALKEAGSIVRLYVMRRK
# Sequence of Inadl_2, Q8NI35 (Q8NI35 238-335): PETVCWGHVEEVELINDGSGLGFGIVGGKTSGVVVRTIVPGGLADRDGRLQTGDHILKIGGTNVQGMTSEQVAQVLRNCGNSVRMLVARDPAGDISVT
# Sequence of Inadl_4, Q8NI35 (Q8NI35 547-651): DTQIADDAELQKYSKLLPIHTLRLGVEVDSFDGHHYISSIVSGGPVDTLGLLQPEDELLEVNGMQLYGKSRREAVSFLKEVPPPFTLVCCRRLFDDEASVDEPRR
# Sequence of DLG4_2, P78352 (P78352 155-259): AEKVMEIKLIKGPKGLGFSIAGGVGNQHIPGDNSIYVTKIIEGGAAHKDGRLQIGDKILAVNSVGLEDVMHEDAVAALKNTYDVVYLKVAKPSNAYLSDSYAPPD
# Sequence of PICK1, Q9NRD5 (Q9NRD5 17-115): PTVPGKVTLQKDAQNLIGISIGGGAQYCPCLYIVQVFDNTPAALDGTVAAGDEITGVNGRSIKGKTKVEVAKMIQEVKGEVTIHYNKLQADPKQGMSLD
# Sequence of PDZRN4_1, Q6ZMN7 (Q6ZMN7 213-318): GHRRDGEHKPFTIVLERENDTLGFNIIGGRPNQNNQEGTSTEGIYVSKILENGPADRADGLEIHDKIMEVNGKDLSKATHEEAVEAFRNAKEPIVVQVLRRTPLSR
# Sequence of GIPC2, Q8TF65 (Q8TF65 112-203): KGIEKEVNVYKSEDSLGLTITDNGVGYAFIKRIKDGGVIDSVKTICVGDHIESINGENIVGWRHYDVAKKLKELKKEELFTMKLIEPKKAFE
# Sequence of Inadl_8, Q8NI35 (Q8NI35 1425-1530): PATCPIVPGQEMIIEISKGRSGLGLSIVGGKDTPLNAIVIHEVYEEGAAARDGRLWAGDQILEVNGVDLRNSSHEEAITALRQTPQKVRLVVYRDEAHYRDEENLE
# Sequence of NOS1, P29475 (P29475 9-101): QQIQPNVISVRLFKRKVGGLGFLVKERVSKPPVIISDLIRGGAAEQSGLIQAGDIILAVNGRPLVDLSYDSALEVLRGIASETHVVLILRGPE
# Sequence of GRIP2_4, Q9C0E4 (Q9C0E4 446-548): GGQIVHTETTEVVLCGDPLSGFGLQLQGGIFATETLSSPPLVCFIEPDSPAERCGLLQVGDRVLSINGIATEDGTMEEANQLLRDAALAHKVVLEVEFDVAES
# Sequence of MAGI1_1, Q96QZ7 (Q96QZ7 1-106): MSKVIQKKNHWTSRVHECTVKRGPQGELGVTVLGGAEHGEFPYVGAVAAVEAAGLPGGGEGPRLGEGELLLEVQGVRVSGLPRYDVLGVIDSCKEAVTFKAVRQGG
binder,measurement,setting,value
"NLNSSRVPDLLV [SARS-CoV2-E, P0DTC4]",pKd,"SNTG1, Q9NSN8; [1]",below the threshold
same,pKd,"DLG4_1, P78352; [1]",below the threshold
same,pKd,"MPP7, Q5T2T1; [1]",below the threshold
same,pKd,"NOS1, P29475; [1]",below the threshold
same,pKd,"NHERF3_3, Q5T2W1; [1]",below the threshold
same,pKd,"PDZRN4_1, Q6ZMN7; [1]",below the threshold
same,pKd,"PTPN13_1, Q12923; [1]",below the threshold
same,pKd,"MAGI1_1, Q96QZ7; [1]",below the threshold
same,pKd,"SNTA1, Q13424; [1]",below the threshold
same,pKd,"Inadl_2, Q8NI35; [1]",3.47
same,pKd,"IL16_4, Q14005; [1]",below the threshold
same,pKd,"APBA1_2, Q02410; [1]",below the threshold
same,pKd,"DLG4_2, P78352; [1]",below the threshold
same,pKd,"PICK1, Q9NRD5; [1]",3.67
same,pKd,"SNX27, Q96L92; [1]",below the threshold
same,pKd,"LIN7A, O14910; [1]",below the threshold
same,pKd,"APBA2_2, Q99767; [1]",below the threshold
same,pKd,"ARHGEF11, O15085; [1]",below the threshold
same,pKd,"SYNJ2BP, P57105; [1]",below the threshold
same,pKd,"LNX2_2, Q8N448; [1]",4.46
same,pKd,"Inadl_8, Q8NI35; [1]",below the threshold
same,pKd,"PARD3_3, Q8TEW0; [1]",3.82
same,pKd,"GRIP2_4, Q9C0E4; [1]",below the threshold
same,pKd,"GIPC2, Q8TF65; [1]",below the threshold
same,pKd,"Inadl_4, Q8NI35; [1]",below the threshold
same,pKd,"GRIP1_2, Q9Y3R0; [1]",below the threshold
"VSVDDVRSTSQGLSSY [DFNB31_int, Q9P202]",pKd,"SNTG1, Q9NSN8; [2]",below the threshold
same,pKd,"DLG4_1, P78352; [2]",below the threshold
same,pKd,"MPP7, Q5T2T1; [2]",below the threshold
same,pKd,"NOS1, P29475; [2]",below the threshold
same,pKd,"NHERF3_3, Q5T2W1; [2]",below the threshold
same,pKd,"PDZRN4_1, Q6ZMN7; [2]",below the threshold
same,pKd,"PTPN13_1, Q12923; [2]",below the threshold
same,pKd,"MAGI1_1, Q96QZ7; [2]",below the threshold
same,pKd,"SNTA1, Q13424; [2]",below the threshold
same,pKd,"Inadl_2, Q8NI35; [2]",below the threshold
same,pKd,"IL16_4, Q14005; [2]",below the threshold
same,pKd,"APBA1_2, Q02410; [2]",below the threshold
same,pKd,"DLG4_2, P78352; [2]",below the threshold
same,pKd,"PICK1, Q9NRD5; [2]",below the threshold
same,pKd,"SNX27, Q96L92; [2]",below the threshold
same,pKd,"LIN7A, O14910; [2]",below the threshold
same,pKd,"APBA2_2, Q99767; [2]",below the threshold
same,pKd,"ARHGEF11, O15085; [2]",below the threshold
same,pKd,"SYNJ2BP, P57105; [2]",below the threshold
same,pKd,"LNX2_2, Q8N448; [2]",below the threshold
same,pKd,"Inadl_8, Q8NI35; [2]",below the threshold
same,pKd,"PARD3_3, Q8TEW0; [2]",below the threshold
same,pKd,"GRIP2_4, Q9C0E4; [2]",below the threshold
same,pKd,"GIPC2, Q8TF65; [2]",below the threshold
same,pKd,"Inadl_4, Q8NI35; [2]",below the threshold
same,pKd,"GRIP1_2, Q9Y3R0; [2]",below the threshold
"PSASCAVTAA [PDLIM4, P50479;P50479-2]",pKd,"SNTG1, Q9NSN8; [3]",below the threshold
same,pKd,"DLG4_1, P78352; [3]",below the threshold
same,pKd,"MPP7, Q5T2T1; [3]",below the threshold
same,pKd,"NOS1, P29475; [3]",below the threshold
same,pKd,"NHERF3_3, Q5T2W1; [3]",below the threshold
same,pKd,"PDZRN4_1, Q6ZMN7; [3]",below the threshold
same,pKd,"PTPN13_1, Q12923; [3]",below the threshold
same,pKd,"MAGI1_1, Q96QZ7; [3]",below the threshold
same,pKd,"SNTA1, Q13424; [3]",below the threshold
same,pKd,"Inadl_2, Q8NI35; [3]",below the threshold
same,pKd,"IL16_4, Q14005; [3]",below the threshold
same,pKd,"APBA1_2, Q02410; [3]",below the threshold
same,pKd,"DLG4_2, P78352; [3]",below the threshold
same,pKd,"PICK1, Q9NRD5; [3]",below the threshold
same,pKd,"SNX27, Q96L92; [3]",below the threshold
same,pKd,"LIN7A, O14910; [3]",below the threshold
same,pKd,"APBA2_2, Q99767; [3]",below the threshold
same,pKd,"ARHGEF11, O15085; [3]",below the threshold
same,pKd,"SYNJ2BP, P57105; [3]",below the threshold
same,pKd,"LNX2_2, Q8N448; [3]",below the threshold
same,pKd,"Inadl_8, Q8NI35; [3]",below the threshold
same,pKd,"PARD3_3, Q8TEW0; [3]",below the threshold
same,pKd,"GRIP2_4, Q9C0E4; [3]",below the threshold
same,pKd,"GIPC2, Q8TF65; [3]",below the threshold
same,pKd,"Inadl_4, Q8NI35; [3]",below the threshold
same,pKd,"GRIP1_2, Q9Y3R0; [3]",below the threshold
"TVICWPGSLV [LNX2, Q8N448]",pKd,"SNTG1, Q9NSN8; [3]",3.7
same,pKd,"DLG4_1, P78352; [3]",4.44
same,pKd,"MPP7, Q5T2T1; [3]",below the threshold
same,pKd,"NOS1, P29475; [3]",3.82
same,pKd,"NHERF3_3, Q5T2W1; [3]",below the threshold
same,pKd,"PDZRN4_1, Q6ZMN7; [3]",4.23
same,pKd,"PTPN13_1, Q12923; [3]",below the threshold
same,pKd,"MAGI1_1, Q96QZ7; [3]",below the threshold
same,pKd,"SNTA1, Q13424; [3]",3.96
same,pKd,"Inadl_2, Q8NI35; [3]",below the threshold
same,pKd,"IL16_4, Q14005; [3]",below the threshold
same,pKd,"APBA1_2, Q02410; [3]",4.39
same,pKd,"DLG4_2, P78352; [3]",4.36
same,pKd,"PICK1, Q9NRD5; [3]",3.75
same,pKd,"SNX27, Q96L92; [3]",3.95
same,pKd,"LIN7A, O14910; [3]",4.35
same,pKd,"APBA2_2, Q99767; [3]",below the threshold
same,pKd,"ARHGEF11, O15085; [3]",3.58
same,pKd,"SYNJ2BP, P57105; [3]",5.53
same,pKd,"LNX2_2, Q8N448; [3]",4.32
same,pKd,"Inadl_8, Q8NI35; [3]",4.57
same,pKd,"PARD3_3, Q8TEW0; [3]",3.68
same,pKd,"GRIP2_4, Q9C0E4; [3]",below the threshold
same,pKd,"GIPC2, Q8TF65; [3]",below the threshold
same,pKd,"Inadl_4, Q8NI35; [3]",below the threshold
same,pKd,"GRIP1_2, Q9Y3R0; [3]",below the threshold

# From publication PMC9482650, “Quantitative fragmentomics allow affinity mapping of interactomes” (Nature Communications, 2022)
